Assay: yeast display, Sf9 membrane polyspecificity reagent, FACS + sequencing; frameworks hold sequencing errors
Outline: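 Polyreactivity labels are assigned by the sorting gate from which each nanobody was recovered. The gates were low and high (top ~1%), set on anti-HA fluorescence for expression and streptavidin fluorescence for reagent binding. Before sorting, galactose-induced (36–48 hours) yeast display cells were stained for 1 hour at 4 °C with 10% biotinylated, detergent-solubilized Sf9 membrane reagent.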

Row | Sequence | polyreactivity (PSR sort gate)
1 | QVQHVESGRGLVQAGGSLRLSCAASGSTFDYNALGWSRQAPGKERELVARISSSGGITDYADSVKGRFTISRDNAKNTVYLHMNSLKPDDTAVNYCARVGKSGAVTAETRRWYYYWGQGTQVTVSS | low polyreactivity
2 | QVQHVESGVGLVQAGGSLRLSCAASGRIFRWNAMGWYRQAPGKERELVAAISWNGGRTYYADSVKGRFTISRDNAKNTVYLQMNSLKPEDTAVYYCAAPHCVPDLHSGDYWGLGTQVTVSS | low polyreactivity
3 | QVQHVESGVGLVQAGGSLRLSCAASGRTFHSSTMGWYRLAAGKERELVAAISKSGGSTYYADSVKGRFTLSRDNAKNTVYLQMNSLKPEDTAVYYCAADPGSRVHPGVYYWGQGTQLTVSS | high polyreactivity
4 | QVQHVESGVGLVQPVGSLRLSCAASGSTIVSNAMGWERQAPGKERELVAAISTSGGTTDYPDSVKGRFTISRHNAKNTVYLQMNCLKPEDTAVYYCAARHYYVKHSYDYWGQGTQVTVSS | low polyreactivity
5 | QVQHVESLGGLVQAGGSLRLSCAASGIIFGYYAMGWYRQAPGKERELVAAISRRGGSTYYADSVKGRFTISRDNAKNTVYLQMNSLKPEDTAVYYCAAVELRLSTPDMESWGQGTQVTVSS | high polyreactivity
6 | QVQHVESRGGLVQAGGSLRLSCAASGFTFYLNAKGWYRQAPGKVRELVAAISYSDGSTYYADSVKGRFTISRDNAKNTVYLQMNSLIPEDTAVYYCAADTTDPGGAYQLMEYWGQGTQVTVSS | high polyreactivity
7 | QVQHVESRGGLVQAGGSLRLSCAASGIIFRYAMGWYRQAPGKERELVAAIRKSDGSTYYADSVKGRFTISRDNAKNTFYLQMNSLKPEDTAVYYCATDIGYGNRKGFYYWGQGSQVTVSS | high polyreactivity
8 | QVQHVESVGGLVQAGGSLRLICADSGFTFWPYAMGWYRPAPGTERELVAAITSSGSTNYADSVKGRFTISRDNAKNTVYLQMNSMKQEDTAVYYCAADHRPWRFQSSVQLYYYWGQGTQVTVSS | low polyreactivity
9 | QVQHVESVGGLVQAGGSLRLSCAASGSIFGRYAMGWYRHAPGKERELVAAISWSGGSTYYADSVKGRFTISRDNAKNTVYLQMNSLKPEDTAVYYCAATTYSGFDYWGQGTQVTVSS | high polyreactivity
10 | QVQHVESVGGLVQAGGSLRLSCAASGSTFGYYAMGWYRQAPGKERELVATISATGGSTYYADSVKGRFTISRDNAKNTVYLQMNSLKPEDTAVYYCNAEYDRGNEYDYWGQGTQVTVSS | low polyreactivity
11 | QVQHVESVGGLVQAGGSLRLSCAASGYIFDYYDIGWYRQAPGKERELVAAINWSGGNTYYADSVKGRFTISRDNAKNTVYLQMKSLKPEDTAVYYCNADPTWSLEYGYWGQGTQVTVSS | low polyreactivity
12 | QVQHVESVGGLVQAGGSLRLSCASSASIFRPNAMGWYRQAPGKDRELVAAITWSGDSTYYADSVKGRFTISRDNAKNTVYLQMNSLKPEDTAVYYCAADFTYQGSSPNYYWGQGTQVTVSS | low polyreactivity
13 | QVQHVESVGGLVQAGGSLRVSCAASGTIFTFYTMGRYRPAPGKERELVAAISQTGGRTYYGDSVKGRFTISRDNAKNTVYLQMNSLKPEDTAVYYCAASVGRYAGNYWGQGTQVTVSS | high polyreactivity
14 | QVQHVETGGGLVQAGGSLRLSCAASGSTFVLYAKGWYRQAPGKERELVAAITWSGDDTYYADSVKGRFTISRDNAKNTVYLQMISLKPEDTAVYYCAAAYAYWGQGTQVTVSS | low polyreactivity
15 | QVQHVETRGGLVQAGGSLRLSCAASGFIFIRYAMGWDRQAPGKERELVAGITSSGGSTYYADSVKGRFTISRDNAKNSVYLQMNSLKPEDTEVYFCNADSWLYRFYGYDYWGQGTQVTVSS | low polyreactivity
16 | QVQIEESGGCLVQAGGSLRLSCAASGNTFFKYNMGWSRQAPRKERELVAAITWSGGSTSYADSVKGRFTISRDNAKNTVYLQMNSLKPEDTAVYYCAAAWSHSRWDTHDYWGQGTQVTVSS | low polyreactivity

From the nanobody polyreactivity screen of Harvey et al. (2022)
